From the Immune Epitope Database (IEDB)

Assays:
HLA-A*03:01 = test: IEDB peptide-MHC binding, purified MHC/direct/fluorescence; filed as Kd, often an IC50 or EC50 that approximates it; ≥ and ≤ were set here for values at or beyond the usual limits of such assays
HLA-A*02:03 = test: IEDB peptide-MHC binding, purified MHC/competitive/radioactivity; filed as Kd, often an IC50 or EC50 that approximates it; ≥ and ≤ were set here for values at or beyond the usual limits of such assays
HLA-A*02:06 = test: as above
HLA-A*02:02 = test: as above
HLA-A*02:01 = test: IEDB peptide-MHC binding, purified MHC/direct/fluorescence; filed as Kd, often an IC50 or EC50 that approximates it; ≥ and ≤ were set here for values at or beyond the usual limits of such assays; conditions: source organism: Mycobacterium tuberculosis
[1] = source organism: Vaccinia virus WR
[2] = source organism: SARS coronavirus Tor2
[3] = source organism: Mammarenavirus juninense
[4] = source organism: Human immunodeficiency virus type 1 (CLONE 12)
[5] = source organism: Mammarenavirus tacaribeense
[6] = source organism: Mammarenavirus brazilense
[7] = source organism: Dengue virus 2 Jamaica/1409/1983

KQNHMQILK
Kd (HLA-A*03:01; source organism: Francisella tularensis subsp. holarctica LVS): 156 nM

LTTVFIKYV
Kd (HLA-A*02:03; [1]): 676 nM | Kd (HLA-A*02:06; [1]): 130 nM | Kd (HLA-A*02:02; [1]): 3650 nM

YIWIKNLET
Kd (HLA-A*02:03; [1]): 1180 nM | Kd (HLA-A*02:06; [1]): 347 nM | Kd (HLA-A*02:02; [1]): 12600 nM

DLTAALRDV
Kd (HLA-A*02:06; source organism: Homo sapiens): ≥ 28100 nM

YTGGYDVSL
Kd (HLA-A*02:03; [1]): 6050 nM | Kd (HLA-A*02:06; [1]): ≥ 20300 nM | Kd (HLA-A*02:02; [1]): 1990 nM

ALSGVFCGV
Kd (HLA-A*02:03; [2]): 11.6 nM | Kd (HLA-A*02:06; [2]): 49.8 nM | Kd (HLA-A*02:02; [2]): 1.16 nM

DLKHATDYIA
Kd (HLA-A*02:03; [1]): 2960 nM | Kd (HLA-A*02:06; [1]): 1050 nM | Kd (HLA-A*02:02; [1]): 8760 nM

SAFNDDGIYI
Kd (HLA-A*02:03; [1]): 67.7 nM | Kd (HLA-A*02:06; [1]): 40.9 nM | Kd (HLA-A*02:02; [1]): 35.2 nM

IMRVMANNV
Kd (HLA-A*02:03; [1]): 1260 nM | Kd (HLA-A*02:06; [1]): 2500 nM | Kd (HLA-A*02:02; [1]): 396 nM

SLCSCICTV
Kd (HLA-A*02:03; [2]): 4.19 nM | Kd (HLA-A*02:06; [2]): 5.83 nM | Kd (HLA-A*02:02; [2]): 3.96 nM

YNFSLSAAV
Kd (HLA-A*02:03; [3]): ≥ 78100 nM | Kd (HLA-A*02:06; [3]): ≥ 77000 nM | Kd (HLA-A*02:02; [3]): ≥ 46200 nM

LVDKEDTDIV
Kd (HLA-A*02:03; [1]): 1680 nM | Kd (HLA-A*02:06; [1]): ≥ 27100 nM | Kd (HLA-A*02:02; [1]): 3700 nM

PANINDKQIM
Kd (HLA-A*02:03; [1]): ≥ 43100 nM | Kd (HLA-A*02:06; [1]): 10900 nM | Kd (HLA-A*02:02; [1]): ≥ 49500 nM

IALALEQYGI
Kd (HLA-A*02:03; [1]): 4920 nM | Kd (HLA-A*02:06; [1]): 1130 nM | Kd (HLA-A*02:02; [1]): 980 nM

YLGHSAGFT
Kd (HLA-A*02:03; [1]): 225 nM | Kd (HLA-A*02:06; [1]): 4550 nM | Kd (HLA-A*02:02; [1]): 874 nM

IVCSKTVKNV
Kd (HLA-A*02:03; [1]): 503 nM | Kd (HLA-A*02:06; [1]): 2760 nM | Kd (HLA-A*02:02; [1]): 10800 nM

RILQQLLFI
Kd (HLA-A*02:03; [4]): 543 nM | Kd (HLA-A*02:06; [4]): 21.6 nM

ITTLLNETA
Kd (HLA-A*02:03; [1]): 936 nM | Kd (HLA-A*02:06; [1]): 596 nM | Kd (HLA-A*02:02; [1]): 414 nM

SINNQLMYDI
Kd (HLA-A*02:03; [1]): 482 nM | Kd (HLA-A*02:06; [1]): 4830 nM | Kd (HLA-A*02:02; [1]): 492 nM

PLTLLIKTL
Kd (HLA-A*02:03; [1]): 6140 nM | Kd (HLA-A*02:06; [1]): 8100 nM | Kd (HLA-A*02:02; [1]): 5270 nM

VAVNKSNKPL
Kd (HLA-A*02:03; [1]): 5130 nM | Kd (HLA-A*02:06; [1]): 17600 nM | Kd (HLA-A*02:02; [1]): 2750 nM

TIDNIVTSLA
Kd (HLA-A*02:03; [1]): ≥ 70400 nM | Kd (HLA-A*02:06; [1]): ≥ 69800 nM | Kd (HLA-A*02:02; [1]): ≥ 70000 nM

LIISTDQDT
Kd (HLA-A*02:03; [1]): ≥ 78100 nM | Kd (HLA-A*02:06; [1]): ≥ 77100 nM | Kd (HLA-A*02:02; [1]): ≥ 77800 nM

VMCGGSLYV
Kd (HLA-A*02:03; [2]): 7.5 nM | Kd (HLA-A*02:06; [2]): 6.81 nM | Kd (HLA-A*02:02; [2]): 0.606 nM

HLYYFITYY
Kd (HLA-A*03:01; source organism: Giardia lamblia ATCC 50803): 150 nM

NITTLLNET
Kd (HLA-A*02:03; [1]): 2900 nM | Kd (HLA-A*02:06; [1]): 2310 nM | Kd (HLA-A*02:02; [1]): 1300 nM

KSFFWFNEV
Kd (HLA-A*02:03; [5]): 264 nM | Kd (HLA-A*02:06; [5]): 3.18 nM | Kd (HLA-A*02:02; [5]): 61.9 nM

NIKPVIVPDI
Kd (HLA-A*02:03; [1]): 745 nM | Kd (HLA-A*02:06; [1]): 945 nM | Kd (HLA-A*02:02; [1]): 10300 nM

RLYNSLKRFT
Kd (HLA-A*02:03; [1]): 444 nM | Kd (HLA-A*02:06; [1]): 7290 nM | Kd (HLA-A*02:02; [1]): 1060 nM

YVASYLLAA
Kd (HLA-A*02:03; source organism: Homo sapiens): 0.978 nM

VLAGIFAGV
Kd (HLA-A*02:01): ≤ 1 nM

VVFLHVTYV
Kd (HLA-A*02:03; [2]): 0.281 nM | Kd (HLA-A*02:06; [2]): 3.86 nM | Kd (HLA-A*02:02; [2]): 7.75 nM

NLTQLFKYV
Kd (HLA-A*02:03; [1]): 238 nM | Kd (HLA-A*02:06; [1]): 657 nM | Kd (HLA-A*02:02; [1]): 320 nM

NIISYIILFI
Kd (HLA-A*02:03; [1]): 133 nM | Kd (HLA-A*02:06; [1]): 72 nM | Kd (HLA-A*02:02; [1]): 123 nM

GLCNYGGILI
Kd (HLA-A*02:03; [1]): 3210 nM | Kd (HLA-A*02:06; [1]): 5030 nM | Kd (HLA-A*02:02; [1]): 152 nM

TMKPHTFNK
Kd (HLA-A*03:01; source organism: Bacillus thuringiensis): 120 nM

IMKDGRVLV
Kd (HLA-A*02:03; source organism: Dengue virus 2 16681-PDK53): 19 nM

IIRVTTELNI
Kd (HLA-A*02:03; [1]): 8760 nM | Kd (HLA-A*02:06; [1]): 13700 nM | Kd (HLA-A*02:02; [1]): 9960 nM

RVLIFILLTA
Kd (HLA-A*02:06; source organism: Dengue virus 2 Peru/IQT2913/1996): 397 nM

YNYSLSAAV
Kd (HLA-A*02:03; [6]): 67.2 nM | Kd (HLA-A*02:06; [6]): 88.4 nM | Kd (HLA-A*02:02; [6]): 78.9 nM

AQPGLLSYV
Kd (HLA-A*02:03; source organism: Mammarenavirus guanaritoense): 5.53 nM

LLFNKVTLA
Kd (HLA-A*02:03; [2]): 1.06 nM | Kd (HLA-A*02:06; [2]): 9.01 nM | Kd (HLA-A*02:02; [2]): 0.953 nM

LTNKKYRCMA
Kd (HLA-A*02:03; [1]): 5400 nM | Kd (HLA-A*02:06; [1]): ≥ 69800 nM | Kd (HLA-A*02:02; [1]): ≥ 34800 nM

ILIRTGLLV
Kd (HLA-A*02:03; [7]): 16.3 nM

YLLGDSDSVA
Kd (HLA-A*02:03; [1]): 22.8 nM | Kd (HLA-A*02:06; [1]): 135 nM | Kd (HLA-A*02:02; [1]): 1.97 nM

INISGYNLSL
Kd (HLA-A*02:03; [5]): 1360 nM | Kd (HLA-A*02:06; [5]): 11400 nM | Kd (HLA-A*02:02; [5]): 179 nM

TILIRTGLLV
Kd (HLA-A*02:06; [7]): 101 nM

DIYDAVRAFL
Kd (HLA-A*02:03; [1]): 6950 nM | Kd (HLA-A*02:06; [1]): 12100 nM | Kd (HLA-A*02:02; [1]): 1460 nM

CLTVPNITI
Kd (HLA-A*02:03; [1]): 75.2 nM | Kd (HLA-A*02:06; [1]): 1660 nM | Kd (HLA-A*02:02; [1]): 95.9 nM

TLDAANHSI
Kd (HLA-A*02:03; [2]): 283 nM | Kd (HLA-A*02:06; [2]): 28.9 nM | Kd (HLA-A*02:02; [2]): 92.4 nM

TAATKRYPGV
Kd (HLA-A*02:03; [1]): 10500 nM | Kd (HLA-A*02:06; [1]): 5570 nM | Kd (HLA-A*02:02; [1]): ≥ 25500 nM

SVQLSNNKYV
Kd (HLA-A*02:03; [1]): 820 nM | Kd (HLA-A*02:06; [1]): 8830 nM | Kd (HLA-A*02:02; [1]): 1220 nM

SVDVDIYDAV
Kd (HLA-A*02:03; [1]): 9.18 nM | Kd (HLA-A*02:06; [1]): 3.3 nM | Kd (HLA-A*02:02; [1]): 0.427 nM

IAGIILLIL
Kd (HLA-A*02:03; [1]): ≥ 52900 nM | Kd (HLA-A*02:06; [1]): ≥ 77100 nM | Kd (HLA-A*02:02; [1]): 4190 nM
